± gives the uncertainty stated by the source.
Experiment: self-splicing fitness, log relative to wild type (ln ratio); higher = more splicing; Tetrahymena group I intron in knt gene, E. coli kanamycin selection, DiMSum; sequences stand for … in CUCUCU…GGAGGGAAAAGUUAUCAGGCAUGCACCUGGUAGCUAGUCUUUAAACCAAUAGAUUGCAUCGGUUUAAAAGGCAAGACCGUCAAAUUGCGGGAAAGGGGUCAACAGCCGUUCAGUACCAAGUCUCAGGGGAAACUUUGAGAUGGCCUUGCAAAGGGUAUGGUAAUAAGCUGACGGACAUGGUCCUAACCACGCAGCCAAGUCCUAAGUCAACAGAUCUUCUGUUGAUAUGGAUGCAGUUCACAGACUAAAUGUCGGUCGGGGAAGAUGUAUUCUUCUCAUAAGAUAUAGUCGGACCUCUCCUUAAUGGGAGCUAGCGGAUGAAGUGAUGCAACACUGGAGCCGCUGGGAACUAAUUUGUAUGCGAAAGUAUAUUGAUUAGUUUUGGAGUACUCGUGGUCG
Procedure, shortened: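 Fitness was computed with DiMSum as the error-weighted combination of replicate fold changes, kanamycin versus none, each normalised to wild type. The library randomised all eight intron nucleotides of the P1ex region, with the intron placed in the knt kanamycin-resistance gene on pET-22b(+) in E. coli BL21(DE3). Six replicate transformations were grown overnight at 37°C or 30°C on LB agar with or without 25 μg/mL kanamycin, plus 100 μg/mL carbenicillin, 50 μM IPTG and 0.2% rhamnose. Pooled colonies were amplicon-sequenced on an Illumina HiSeq 2500.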

Row | Sequence | self-splicing fitness (ln) (30 °C) | self-splicing fitness (ln) (37 °C)
1 | UGCCAGCAAUAUUACGACUU | -2.97 ± 0.14 | -1.46 ± 0.13
2 | UGCCAGCAAUAUUACGAGCU | -1.17 ± 0.075 | -0.631 ± 0.098
3 | UGCCAGCAAUAUUACGAUCC | -3.25 ± 0.29 | -1.11 ± 0.42
4 | UGCCAGCAAUAUUACGAUGC | -3.57 ± 0.17 | -2.35 ± 0.21
5 | UGCCAGCAAUAUUACGAUGG | -3.49 ± 0.2 | -2.16 ± 0.18
6 | UGCCAGCAAUAUUACGCACG | -1.48 ± 0.2 | -0.233 ± 0.14
7 | UGCCAGCAAUAUUACGCAGG | -4.43 ± 0.33 | -3.14 ± 0.28
8 | UGCCAGCAAUAUUACGCCAC |  | -2.54 ± 0.29
9 | UGCCAGCAAUAUUACGCCCA | 0.23 ± 0.099 | -0.149 ± 0.13
10 | UGCCAGCAAUAUUACGCGAG | -3.22 ± 0.17 | -2.92 ± 0.21
11 | UGCCAGCAAUAUUACGCGCU | -1.3 ± 0.12 | -0.531 ± 0.17
12 | UGCCAGCAAUAUUACGCGGC |  | -1.85 ± 0.35
13 | UGCCAGCAAUAUUACGCUCA | -0.505 ± 0.061 | -0.207 ± 0.07
14 | UGCCAGCAAUAUUACGCUCU | -1.42 ± 0.079 | 0.293 ± 0.098
15 | UGCCAGCAAUAUUACGGGGC | -3.04 ± 0.16 | -1.74 ± 0.17
16 | UGCCAGCAAUAUUACGGGGG | -3.83 ± 0.17 | -2.9 ± 0.17
17 | UGCCAGCAAUAUUACGGGUA | -2.25 ± 0.15 | -1.24 ± 0.15
18 | UGCCAGCAAUAUUACGGUCA | -0.926 ± 0.081 | -0.0439 ± 0.092
19 | UGCCAGCAAUAUUACGUCUU | -2.22 ± 0.18 | -1.86 ± 0.21
20 | UGCCAGCAAUAUUACGUGCA | -2.55 ± 0.1 | -1.53 ± 0.12
21 | UGCCAGCAAUAUUACGUGGA | -3.33 ± 0.18 | -1.71 ± 0.13
22 | UGCCAGCAAUAUUACGUGUG | -1.49 ± 0.052 | -1.14 ± 0.071
23 | UGCCAGCAAUAUUACGUUCC | -1.31 ± 0.31 | -2.25 ± 0.3
24 | UGCGAGCAAUAUUACGAGCG | -2.92 ± 0.33 | -2.07 ± 0.3
25 | UGCGAGCAAUAUUACGAUAC | -2.68 ± 0.28 | -1.45 ± 0.32

Row | Sequence | self-splicing fitness (ln) (30 °C) | self-splicing fitness (ln) (37 °C)
26 | UGCGAGCAAUAUUACGAUCC |  | -2.04 ± 0.46
27 | UGCGAGCAAUAUUACGAUCU | -1.84 ± 0.21 | -1.06 ± 0.16
28 | UGCGAGCAAUAUUACGAUGG | -3.43 ± 0.2 | -1.93 ± 0.17
29 | UGCGAGCAAUAUUACGAUUA | -1.56 ± 0.13 | -1.1 ± 0.11
30 | UGCGAGCAAUAUUACGCCUC | -2.78 ± 0.43 | 
31 | UGCGAGCAAUAUUACGCUUU | -2.38 ± 0.15 | -3.02 ± 0.28
32 | UGCGAGCAAUAUUACGGAAA | -3.19 ± 0.33 | -2.55 ± 0.3
33 | UGCGAGCAAUAUUACGGAGG |  | -1.17 ± 0.18
34 | UGCGAGCAAUAUUACGGGAA | -3.87 ± 0.38 | -2.5 ± 0.24
35 | UGCGAGCAAUAUUACGGGCC | -2.91 ± 0.28 | -1.54 ± 0.21
36 | UGCGAGCAAUAUUACGGUAA | -2.4 ± 0.17 | -2.22 ± 0.16
37 | UGCGAGCAAUAUUACGUACC | -2.77 ± 0.14 | -2.75 ± 0.25
38 | UGCGAGCAAUAUUACGUACU | -2.58 ± 0.24 | -1.23 ± 0.22
39 | UGCGAGCAAUAUUACGUAGA |  | -0.382 ± 0.22
40 | UGCGAGCAAUAUUACGUCAA |  | -0.906 ± 0.35
41 | UGCGAGCAAUAUUACGUCGU | -3.64 ± 0.25 | -3.4 ± 0.37
42 | UGCGAGCAAUAUUACGUGUC | -4.36 ± 0.33 | -2.01 ± 0.26
43 | UGCGAGCAAUAUUACGUUCG |  | -1.25 ± 0.34
44 | UGCUAGCAAUAUUACGAAAU | -3.79 ± 0.4 | -1.67 ± 0.36
45 | UGCUAGCAAUAUUACGAAGG | -2.13 ± 0.16 | -0.838 ± 0.34
46 | UGCUAGCAAUAUUACGAGAU | -3.93 ± 0.31 | -2.41 ± 0.3
47 | UGCUAGCAAUAUUACGAGCA |  | -2.39 ± 0.39
48 | UGCUAGCAAUAUUACGAGUA | -1.34 ± 0.072 | -0.447 ± 0.076
49 | UGCUAGCAAUAUUACGAUCG | 0.18 ± 0.12 | 0.439 ± 0.23
50 | UGCUAGCAAUAUUACGAUGG | -1.52 ± 0.067 | -0.47 ± 0.088

Row | Sequence | self-splicing fitness (ln) (30 °C) | self-splicing fitness (ln) (37 °C)
51 | UGCUAGCAAUAUUACGCAAC | -3.07 ± 0.28 | -1.98 ± 0.2
52 | UGCUAGCAAUAUUACGCACC | -1.91 ± 0.34 | -0.242 ± 0.37
53 | UGCUAGCAAUAUUACGCCAU | -3.15 ± 0.28 | -2.65 ± 0.35
54 | UGCUAGCAAUAUUACGCUUC | -1.65 ± 0.17 | -0.347 ± 0.28
55 | UGCUAGCAAUAUUACGGAAU | -3.98 ± 0.39 | -2.97 ± 0.29
56 | UGCUAGCAAUAUUACGGCGA | -0.369 ± 0.22 | -0.302 ± 0.23
57 | UGCUAGCAAUAUUACGGCGG | -1.15 ± 0.16 | -0.887 ± 0.23
58 | UGCUAGCAAUAUUACGGGAA | -1.83 ± 0.15 | -0.95 ± 0.16
59 | UGCUAGCAAUAUUACGGGGC | -3.59 ± 0.29 | -2.69 ± 0.25
60 | UGCUAGCAAUAUUACGGGUG | -1.79 ± 0.098 | -1.3 ± 0.11
61 | UGCUAGCAAUAUUACGGUUA | -0.0068 ± 0.062 | -0.481 ± 0.068
62 | UGCUAGCAAUAUUACGUCGA | -1.18 ± 0.13 | -1.14 ± 0.18
63 | UGCUAGCAAUAUUACGUGAA | -2.87 ± 0.14 | -0.167 ± 0.1
64 | UGCUAGCAAUAUUACGUUGA | -2.84 ± 0.18 | -2.43 ± 0.24
65 | UGCUAGCAAUAUUACGUUUA | -3.11 ± 0.19 | -1.27 ± 0.12
66 | UGGAAGCAAUAUUACGAAGC | -3.64 ± 0.35 | -2.35 ± 0.36
67 | UGGAAGCAAUAUUACGAGAG | -3.79 ± 0.47 | -3.3 ± 0.33
68 | UGGAAGCAAUAUUACGAGCA | -0.526 ± 0.082 | 0.193 ± 0.1
69 | UGGAAGCAAUAUUACGAGUC | -2.78 ± 0.29 | -3.37 ± 0.33
70 | UGGAAGCAAUAUUACGAUUA | -1.1 ± 0.11 | 0.012 ± 0.12
71 | UGGAAGCAAUAUUACGCAAG |  | -1.83 ± 0.37
72 | UGGAAGCAAUAUUACGCAAU | -1.81 ± 0.24 | -0.664 ± 0.24
73 | UGGAAGCAAUAUUACGCAGA | -2.85 ± 0.21 | -0.966 ± 0.14
74 | UGGAAGCAAUAUUACGGACU | -0.345 ± 0.11 | 0.284 ± 0.12
75 | UGGAAGCAAUAUUACGGCCA | -0.874 ± 0.21 | -0.244 ± 0.2

Row | Sequence | self-splicing fitness (ln) (30 °C) | self-splicing fitness (ln) (37 °C)
76 | UGGAAGCAAUAUUACGGGAC | -2.63 ± 0.21 | -3.26 ± 0.32
77 | UGGAAGCAAUAUUACGGGCC |  | -1.27 ± 0.34
78 | UGGAAGCAAUAUUACGUAUC | -3.27 ± 0.27 | -2.28 ± 0.27
79 | UGGAAGCAAUAUUACGUAUU | -3.06 ± 0.23 | -3.09 ± 0.33
80 | UGGAAGCAAUAUUACGUCGC | -3.16 ± 0.45 | -2.39 ± 0.35
81 | UGGAAGCAAUAUUACGUGAU | -2.32 ± 0.2 | -1.67 ± 0.22
82 | UGGAAGCAAUAUUACGUGCC | -2.57 ± 0.27 | -0.372 ± 0.34
83 | UGGAAGCAAUAUUACGUUGU | -3.64 ± 0.37 | -2.88 ± 0.3
84 | UGGCAGCAAUAUUACGAACC | -1.66 ± 0.15 | -0.775 ± 0.2
85 | UGGCAGCAAUAUUACGAAUC | -2.3 ± 0.25 | 
86 | UGGCAGCAAUAUUACGACGC |  | -1.72 ± 0.24
87 | UGGCAGCAAUAUUACGCACA | -1.24 ± 0.11 | -0.127 ± 0.12
88 | UGGCAGCAAUAUUACGCACC | -2.36 ± 0.22 | -1.37 ± 0.25
89 | UGGCAGCAAUAUUACGCAUC | -1.93 ± 0.18 | -1.65 ± 0.16
90 | UGGCAGCAAUAUUACGCUAG | -1.41 ± 0.077 | -0.514 ± 0.11
91 | UGGCAGCAAUAUUACGCUCU | -2.8 ± 0.2 | -1.37 ± 0.16
92 | UGGCAGCAAUAUUACGGCUA | -0.191 ± 0.15 | -0.128 ± 0.19
93 | UGGCAGCAAUAUUACGGGAC | -2.88 ± 0.45 | -2.37 ± 0.49
94 | UGGCAGCAAUAUUACGGGUA | -0.841 ± 0.11 | 0.0742 ± 0.11
95 | UGGCAGCAAUAUUACGGGUU | -3.09 ± 0.14 | -2.45 ± 0.14
96 | UGGCAGCAAUAUUACGUACC | -0.627 ± 0.17 | -0.885 ± 0.23
97 | UGGCAGCAAUAUUACGUAGA | -0.926 ± 0.084 | -0.264 ± 0.094
98 | UGGCAGCAAUAUUACGUAGG | -0.869 ± 0.092 | -0.975 ± 0.14
99 | UGGCAGCAAUAUUACGUGGG | -2.8 ± 0.1 | -2.02 ± 0.11

Reference: the supplement of paper PMC7877785
